Ten molecules from US20230322953A1 (HARBOUR BIOMED SHANGHAI, published 2023) can be followed below.

The target in assay [1] is T1, human CD3 (TCR/CD3 complex) on human T cells (human, UniProt P07766 23-207).
T1 construct: whole, on cells
The assay can be described thus: flow cytometry (FACS) on human T cells, Experiment 2. (In flow cytometry, cells or beads pass a laser one at a time.)

In assay [2] the target is T2, cynomolgus monkey BCMA (ACRO Biosystems, #BCA-C82F4) (cynomolgus monkey, UniProt A0A2K5UD97 1-53).
T2 construct: Bought protein; also called cyBCMA.Fc
The assay can be described thus: BLI (Octet Red96e), cyBCMA.Fc on SA sensor, 1:1 global fitting.

For assay [3], the target named is T3, cynomolgus monkey CD3 (TCR/CD3 complex) on cynomolgus monkey T cells (cynomolgus monkey).
T3 construct: whole, on cells
The experiment in a line: flow cytometry (FACS) on cynomolgus monkey T cells.

Assay [4] deals with T2, cynomolgus monkey BCMA (ACRO …). The experiment in a line: BLI; KD for cynomolgus monkey BCMA divided by KD for human BCMA. (In general: Biolayer interferometry detects binding as a change in optical thickness at a sensor tip.)
In assay [5] the target is T4, biotinylated human BCMA-Fc, Avitag recombinant protein (ACRO Biosystems, #BC7-H82F0) (human, UniProt Q02223 1-54, biotinylated (Avitag)).
T4 construct: extracellular domain; Bought protein; also called huBCMA.Fc; recombinant human BCMA-ECD-Fc
T4 sequence (looked up): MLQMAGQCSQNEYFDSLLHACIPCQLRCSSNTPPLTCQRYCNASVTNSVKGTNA
The assay can be described thus: BLI (Octet Red96e), biotinylated BCMA-Fc on SA sensor, 1:1 global fitting.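 Note: Anti-BCMA antibodies analysed as binding partners of the captured BCMA antigen, with reference signals removed by double referencing before kinetic fitting.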

For assay [6], the target named is T1, human CD3 (TCR/CD3 complex) on human T …. The experiment in a line: flow cytometry (FACS) on human T cells, Experiment 3.
For assay [7] the target is unchanged. The assay can be described thus: flow cytometry (FACS) on human T cells, Experiment 1.

Usually Kd stands for the free concentration of one partner at which half of the binding sites on the other are occupied at equilibrium, for simple one-to-one binding. One may read the koff as the first-order rate constant of dissociation. As a reminder, the kon is a measure of how fast the partners come together.

Positions count from the first letter of the chain named.

T1 sequence (P07766 23-207, one chain of several): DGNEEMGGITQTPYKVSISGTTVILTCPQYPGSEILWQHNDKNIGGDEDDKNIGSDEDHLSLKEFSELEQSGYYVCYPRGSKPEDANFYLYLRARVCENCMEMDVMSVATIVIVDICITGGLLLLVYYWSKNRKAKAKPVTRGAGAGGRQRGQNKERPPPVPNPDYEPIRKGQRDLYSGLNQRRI
T2 sequence (A0A2K5UD97 entry or part of it): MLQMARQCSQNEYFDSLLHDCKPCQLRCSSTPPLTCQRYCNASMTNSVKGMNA
T3 sequence (Q95LI5 22-198, one chain of several): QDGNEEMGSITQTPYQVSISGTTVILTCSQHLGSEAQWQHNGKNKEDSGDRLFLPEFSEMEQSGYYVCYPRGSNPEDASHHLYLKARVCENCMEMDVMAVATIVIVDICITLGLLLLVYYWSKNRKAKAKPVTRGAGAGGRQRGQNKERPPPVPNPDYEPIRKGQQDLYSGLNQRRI

B1: PR001996 (bispecific antibody, IgG1)
chain 1: EVQLLESGGGLVQPGGSLRLSCAASGFTFNTYAMNWVRQAPGKGLEWVSRIRSKYNNYATYYADSVKDRFTISRDDSKSTLYLQMNSLRAEDTAVYYCVRHGNFGNSYVSWFAYWGQGTLVTVSSASTKGPSVFPLAPSSKSTSGGTAALGCLVKDYFPEPVTVSWNSGALTSGVHTFPAVLQSSGLYSLSSVVTVPSSSLGTQTYICNVNHKPSNTKVDKKVEPKSC
chain 2: QAVVTQEPSLTVSPGGTVTLTCRSSTGAVTTSNYANWVQQKPGQAPRGLIGGTNKRAPWTPARFSGSLLGDKAALTLLGAQPEDEAEYFCALWYSNLWVFGGGTKLTVLGQPKAAPSVTLFPPSSEELQANKATLVCLISDFYPGAVTVAWKADSSPVKAGVETTTPSKQSNNKYAASSYLSLTPEQWKSHRSYSCQVTHEGSTVEKTVAPTECSDKTHTCPPCPAPEAAGGPSVFLFPPKPKDTLMISRTPEVTCVVVDVSHEDPEVKFNWYVDGVEVHNAKTKPREEQYNSTYRVVSVLTVLHQDWLNGKEYKCKVSNKALGAPIEKTISKAKGQPREPQVYTLPPCREEMTKNQVSLWCLVKGFYPSDIAVEWESNGQPENNYKTTPPVLDSDGSFFLYSKLTVDKSRWQQGNVFSCSVMHEALHNHYTQKSLSLSPGK
chain 3: EVQLVETGGGLIQPGGSLRLSCAASGFPVSSNYMSWVRQAPGKGLEWVSVIFSGGRTYYADSVKGRFTISRDNSKNTLYLQMNSLRAEDTAVYYCARRNWIDGRDAFDIWGQGTMVTVSSASEPKSSDKTHTCPPCPAPEAAGGPSVFLFPPKPKDTLMISRTPEVTCVVVDVSHEDPEVKFNWYVDGVEVHNAKTKPREEQYNSTYRVVSVLTVLHQDWLNGKEYKCKVSNKALGAPIEKTISKAKGQPREPQVCTLPPSREEMTKNQVSLSCAVKGFYPSDIAVEWESNGQPENNYKTTPPVLDSDGSFFLVSKLTVDKSRWQQGNVFSCSVMHEALHNHYTQKSLSLSPGK
notes: Structure 13 (Fab(cross Fd/LC)-Fc-VH): CD3 Fab from PR000511, BCMA VH from PR000943; IgG1 knob/hole, AAG
Consider B1, for which the “Maximum MFI” value in assay [1] worked out at 3440 MFI.

B2: PR002000 (bispecific antibody, IgG1)
chain 1: QAVVTQEPSLTVSPGGTVTLTCRSSTGAVTTSNYANWVQQKPGQAPRGLIGGTNKRAPWTPARFSGSLLGDKAALTLLGAQPEDEAEYFCALWYSNLWVFGGGTKLTVLGGGQSGQGGSGGGGSEVQLVESGGGLVQPGGSLKLSCAASGFTFNTYAMNWVRQASGKGLEWVGRIRSKYNNYATYYADSVKDRFTISRDDSKSTLYLQMNSLKTEDTAVYYCVRHGNFGNSYVSWFAYWGQGTLVTVSSASEPKSSDKTHTCPPCPAPEAAGGPSVFLFPPKPKDTLMISRTPEVTCVVVDVSHEDPEVKFNWYVDGVEVHNAKTKPREEQYNSTYRVVSVLTVLHQDWLNGKEYKCKVSNKALGAPIEKTISKAKGQPREPQVYTLPPCREEMTKNQVSLWCLVKGFYPSDIAVEWESNGQPENNYKTTPPVLDSDGSFFLYSKLTVDKSRWQQGNVFSCSVMHEALHNHYTQKSLSLSPGK
chain 2: B1 chain 3
notes: Structure 20 (scFv(VL-VH)-Fc-VH): CD3 scFv from PR000510, BCMA VH from PR000943; IgG1 knob/hole, AAG
As to B2, in assay [1], the “Maximum MFI” value came out at 1730 MFI.

B3: PR001997 (bispecific antibody, IgG1)
chain 1: B1 chain 1
chain 2: B1 chain 2
chain 3: B1 chain 3 with P28T, S35T, R56S, N99I, W100A, I101V, D102A, R104H, A106V
notes: Structure 13 (Fab(cross Fd/LC)-Fc-VH): CD3 Fab from PR000511, BCMA VH from PR001035; IgG1 knob/hole, AAG
Turning to B3, in assay [1], the “Maximum MFI” value is 4460 MFI.

B4: PR002929 (bispecific antibody, human IgG1, lambda, L234A L235A)
light: QAVVTQEPSLTVSPGGTVTLTCRSSTGAVTTSNYANWVQQKPGQAPRGLIGGTNKRAPWTPARFSGSLLGDKAALTLLGAQPEDEAEYFCALWYSNLWVFGGGTKLTVLGQPKAAPSVTLFPPSSEELQANKATLVCLISDFYPGAVTVAWKADSSPVKAGVETTTPSKQSNNKYAASSYLSLTPEQWKSHRSYSCQVTHEGSTVEKTVAPTECS
heavy: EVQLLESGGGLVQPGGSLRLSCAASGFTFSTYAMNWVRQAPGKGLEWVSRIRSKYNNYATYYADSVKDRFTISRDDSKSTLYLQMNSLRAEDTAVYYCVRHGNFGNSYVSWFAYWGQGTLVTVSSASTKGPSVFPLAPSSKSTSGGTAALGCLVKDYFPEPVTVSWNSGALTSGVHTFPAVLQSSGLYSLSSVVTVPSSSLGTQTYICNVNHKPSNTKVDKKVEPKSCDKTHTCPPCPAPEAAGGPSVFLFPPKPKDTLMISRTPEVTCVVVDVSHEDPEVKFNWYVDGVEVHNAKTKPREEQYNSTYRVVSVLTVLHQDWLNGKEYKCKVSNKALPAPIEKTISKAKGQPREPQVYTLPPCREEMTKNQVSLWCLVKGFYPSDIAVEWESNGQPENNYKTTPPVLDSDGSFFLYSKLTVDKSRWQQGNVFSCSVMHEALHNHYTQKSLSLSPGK
chain: EVQLVETGGGLIQPGGSLRLSCAASGFTVSDNYMTWVRQAPGKGLEWVSVIFSGGNTYYADSVKGRFTISRDNAKNTLYLQMNSLRAEDTALYYCARRNYDDTRGTDVFDIWGQGTMVTVSSASEPKSSDKTHTCPPCPAPEAAGGPSVFLFPPKPKDTLMISRTPEVTCVVVDVSHEDPEVKFNWYVDGVEVHNAKTKPREEQYNSTYRVVSVLTVLHQDWLNGKEYKCKVSNKALPAPIEKTISKAKGQPREPQVCTLPPSREEMTKNQVSLSCAVKGFYPSDIAVEWESNGQPENNYKTTPPVLDSDGSFFLVSKLTVDKSRWQQGNVFSCSVMHEALHNHYTQKSLSLSPGK
Take B4: in assay [2], the affinity, expressed as Kd, was 6.62 nM; the koff was determined as 0.00582 s⁻¹; the kon was found to be 879000 M⁻¹ s⁻¹. Also, in assay [3], the “Maximum MFI” value worked out at 10100 MFI. In assay [4], the “KD ratio (cy BCMA/hu BCMA)” value was determined as 1.11. Also, in assay [5], the Kd was 5.95 nM, the koff was 0.00148 s⁻¹ and the kon turned out to be 249000 M⁻¹ s⁻¹. Moreover, the “Maximum MFI” value in assay [6] was 283000 MFI.

B5: PR002002 (bispecific antibody, IgG1)
chain 1: B2 chain 1
chain 2: B4 chain with P238G
notes: Structure 20 (scFv(VL-VH)-Fc-VH): CD3 scFv from PR000510, BCMA VH from PR001046; IgG1 knob/hole, AAG
On to B5, for which, in assay [1], the “Maximum MFI” value was 1120 MFI.

B6: PR001998 (bispecific antibody, IgG1)
chain 1: B1 chain 1
chain 2: B1 chain 2
chain 3: B4 chain with P238G
notes: Structure 13 (Fab(cross Fd/LC)-Fc-VH): CD3 Fab from PR000511, BCMA VH from PR001046; IgG1 knob/hole, AAG
As to B6, the “Maximum MFI” value in assay [1] worked out at 3320 MFI.

B7: PR000274, anti-BCMA monoclonal antibody CA8-J6M0 (antibody, human IgG1, kappa, V domains shown)
VH: QVQLVQSGAEVKKPGSSVKVSCKASGGTFSNYWMHWVRQAPGQGLEWMGATYRGHSDTYYNQKFKGRVTITADKSTSTAYMELSSLRSEDTAVYYCARGAIYDGYDVLDNWGQGTLVTVSS
VL: DIQMTQSPSSLSASVGDRVTITCSASQDISNYLNWYQQKPGKAPKLLIYYTSNLHSGVPSRFSGSGSGTDFTLTISSLQPEDFATYYCQQYRKLPWTFGQGTKLEIKR
notes: also called Positive control 1; CA8-J6M0 hIgG1
Consider B7, for which, in assay [2], the affinity, expressed as Kd, was 0.0388 nM; the koff is 7.76e-06 s⁻¹; the kon is 200000 M⁻¹ s⁻¹. Besides, the “KD ratio (cy BCMA/hu BCMA)” value in assay [4] was 0.06. Moreover, in assay [5], the Kd turned out to be 0.655 nM, the koff was determined as 0.000135 s⁻¹ and the kon was 206000 M⁻¹ s⁻¹.

B8: PR001999 (bispecific antibody, IgG1)
chain 1: B2 chain 1
chain 2: EVQLLESGGGLVQPGGSLRLSCAASGFTFSSYAMIWVRQAPGKGLEWVSGISESGGSTYYADSVKGRFTISRDNSKNTLYLQMNSLRAEDTAVYFCVKDLDDILTGYYKDYWGQGTLVTVSSASEPKSSDKTHTCPPCPAPEAAGGPSVFLFPPKPKDTLMISRTPEVTCVVVDVSHEDPEVKFNWYVDGVEVHNAKTKPREEQYNSTYRVVSVLTVLHQDWLNGKEYKCKVSNKALGAPIEKTISKAKGQPREPQVCTLPPSREEMTKNQVSLSCAVKGFYPSDIAVEWESNGQPENNYKTTPPVLDSDGSFFLVSKLTVDKSRWQQGNVFSCSVMHEALHNHYTQKSLSLSPGK
notes: IgG1 knob/hole, AAG
On to B8, for which, in assay [1], the “Maximum MFI” value turned out to be 1170 MFI.

B9: PR000260, anti-CD3 monoclonal antibody SP34 (hIgG1 chimeric antibody) (antibody, V domains shown)
VH: EVQLVESGGGLVQPKGSLKLSCAASGFTFNTYAMNWVRQAPGKGLEWVARIRSKYNNYATYYADSVKDRFTISRDDSQSILYLQMNNLKTEDTAMYYCVRHGNFGNSYVSWFAYWGQGTLVTVSA
VL: QAVVTQESALTTSPGETVTLTCRSSTGAVTTSNYANWVQEKPDHLFTGLIGGTNKRAPGVPARFSGSLIGDKAALTITGAQTEDEAIYFCALWYSNLWVFGGGTKLTVLG
For B9, the “Maximum MFI” value came out at 7160 MFI in assay [7] and 6030 MFI in assay [1].

B10: PR001046, anti-BCMA HCAb antibody (clone 1005P63B7) (antibody, human IgG1, V domains shown)
VH: EVQLVETGGGLIQPGGSLRLSCAASGFTVSDNYMTWVRQAPGKGLEWVSVIFSGGNTYYADSVKGRFTISRDNAKNTLYLQMNSLRAEDTALYYCARRNYDDTRGTDVFDIWGQGTMVTVSS
With B10, in assay [2], the Kd stood at 0.119 nM, the koff was determined as 7.54e-05 s⁻¹ and the kon worked out at 633000 M⁻¹ s⁻¹. In addition, the “KD ratio (cy BCMA/hu BCMA)” value in assay [4] came out at 1.54. In addition, in assay [5], the Kd is 0.0775 nM, the koff worked out at 3.56e-05 s⁻¹ and the kon worked out at 459000 M⁻¹ s⁻¹.
